Columns and labels:
[1] = target: Isoform 2 of ATP synthase subunit alpha, mitochondrial (UniProt P25705); assay: IP with isotype IgG control from SW480 lysate, LC-MS (negative control)
[2] = target: ADP/ATP translocase 3 OS = Homo sapiens GN = SLC25A6 (Homo sapiens) (UniProt P12236); assay: as above
[3] = target: Desmoplakin OS = Homo sapiens GN = DSP PE = 1 SV = 3 (Homo sapiens) (UniProt P15924); assay: as above
[4] = target: Junction plakoglobin OS = Homo sapiens GN = JUP PE = 1 (Homo sapiens) (UniProt P14923); assay: as above
[5] = target: Isoform 2 of Glyceraldehyde-3-phosphate (name cut off as printed) (UniProt P04406); assay: as above
[6] = target: Tubulin beta-4B chain OS = Homo sapiens GN = TUBB4B (Homo sapiens) (UniProt P68371); assay: as above
[7] = target: DNA-dependent protein kinase catalytic subunit (UniProt P78527); assay: as above
[8] = target: Tubulin beta chain OS = Homo sapiens GN = TUBB PE = 1 (Homo sapiens) (UniProt P07437); assay: as above
[9] = target: Isoform 2 of Annexin A2 OS = Homo sapiens GN = ANXA2 (Homo sapiens) (UniProt P07355); assay: as above
[10] = target: Cytoplasmic dynein 1 heavy chain 1 OS = Homo sapiens (Homo sapiens) (UniProt Q14204); assay: as above
[11] = target: Heat shock cognate 71 kDa protein OS = Homo sapiens (Homo sapiens) (UniProt P11142); assay: as above
[12] = target: ATP synthase subunit beta, mitochondrial OS = Homo (name cut off as printed) (Homo sapiens) (UniProt P06576); assay: as above
[13] = target: Heat shock protein HSP 90-alpha OS = Homo sapiens (Homo sapiens) (UniProt P07900); assay: as above
[14] = target: Histone H4 OS = Homo sapiens GN = HIST1H4A PE = 1 (Homo sapiens) (UniProt P62805); assay: as above
[15] = target: Isoform 2 of 40S ribosomal protein S20 OS = Homo (name cut off as printed) (Homo sapiens) (UniProt P60866); assay: as above
[16] = target: 40S ribosomal protein S15a OS = Homo sapiens (Homo sapiens) (UniProt P62244); assay: as above
[17] = target: 40S ribosomal protein S3 OS = Homo sapiens GN = RPS3 (Homo sapiens) (UniProt P23396); assay: as above
[18] = target: Myosin-9 OS = Homo sapiens GN = MYH9 PE = 1 SV = 4 (Homo sapiens) (UniProt P35579); assay: as above
[19] = target: Heat shock protein beta-1 OS = Homo sapiens (Homo sapiens) (UniProt P04792); assay: as above
[20] = target: endogenous fibronectin of human CRC cells (Isoform 10 of Fibronectin OS = Homo sapiens GN = FN1) (Homo sapiens) (UniProt P02751); assay: as above
[21] = target: Isoform 2 of Plectin OS = Homo sapiens GN = PLEC (Homo sapiens) (UniProt Q15149); assay: as above
[22] = target: Isoform 2 of ATP synthase subunit alpha, mitochondrial (UniProt P25705); assay: co-IP with M53 from SW480 lysate, LC-MS
[23] = target: ADP/ATP translocase 3 OS = Homo sapiens GN = SLC25A6 (Homo sapiens) (UniProt P12236); assay: co-IP with M53 from SW480 lysate, LC-MS
[24] = target: Desmoplakin OS = Homo sapiens GN = DSP PE = 1 SV = 3 (Homo sapiens) (UniProt P15924); assay: co-IP with M53 from SW480 lysate, LC-MS
[25] = target: Junction plakoglobin OS = Homo sapiens GN = JUP PE = 1 (Homo sapiens) (UniProt P14923); assay: co-IP with M53 from SW480 lysate, LC-MS
[26] = target: Isoform 2 of Glyceraldehyde-3-phosphate (name cut off as printed) (UniProt P04406); assay: co-IP with M53 from SW480 lysate, LC-MS
[27] = target: Tubulin beta-4B chain OS = Homo sapiens GN = TUBB4B (Homo sapiens) (UniProt P68371); assay: co-IP with M53 from SW480 lysate, LC-MS
[28] = target: DNA-dependent protein kinase catalytic subunit (UniProt P78527); assay: co-IP with M53 from SW480 lysate, LC-MS
[29] = target: Tubulin beta chain OS = Homo sapiens GN = TUBB PE = 1 (Homo sapiens) (UniProt P07437); assay: co-IP with M53 from SW480 lysate, LC-MS
[30] = target: Isoform 2 of Annexin A2 OS = Homo sapiens GN = ANXA2 (Homo sapiens) (UniProt P07355); assay: co-IP with M53 from SW480 lysate, LC-MS
[31] = target: Cytoplasmic dynein 1 heavy chain 1 OS = Homo sapiens (Homo sapiens) (UniProt Q14204); assay: co-IP with M53 from SW480 lysate, LC-MS
[32] = target: Heat shock cognate 71 kDa protein OS = Homo sapiens (Homo sapiens) (UniProt P11142); assay: co-IP with M53 from SW480 lysate, LC-MS
[33] = target: ATP synthase subunit beta, mitochondrial OS = Homo (name cut off as printed) (Homo sapiens) (UniProt P06576); assay: co-IP with M53 from SW480 lysate, LC-MS
[34] = target: Heat shock protein HSP 90-alpha OS = Homo sapiens (Homo sapiens) (UniProt P07900); assay: co-IP with M53 from SW480 lysate, LC-MS
[35] = target: Histone H4 OS = Homo sapiens GN = HIST1H4A PE = 1 (Homo sapiens) (UniProt P62805); assay: co-IP with M53 from SW480 lysate, LC-MS
[36] = target: Isoform 2 of 40S ribosomal protein S20 OS = Homo (name cut off as printed) (Homo sapiens) (UniProt P60866); assay: co-IP with M53 from SW480 lysate, LC-MS
[37] = target: 40S ribosomal protein S15a OS = Homo sapiens (Homo sapiens) (UniProt P62244); assay: co-IP with M53 from SW480 lysate, LC-MS
[38] = target: 40S ribosomal protein S3 OS = Homo sapiens GN = RPS3 (Homo sapiens) (UniProt P23396); assay: co-IP with M53 from SW480 lysate, LC-MS
[39] = target: Myosin-9 OS = Homo sapiens GN = MYH9 PE = 1 SV = 4 (Homo sapiens) (UniProt P35579); assay: co-IP with M53 from SW480 lysate, LC-MS
[40] = target: Heat shock protein beta-1 OS = Homo sapiens (Homo sapiens) (UniProt P04792); assay: co-IP with M53 from SW480 lysate, LC-MS
[41] = target: Isoform 2 of Plectin OS = Homo sapiens GN = PLEC (Homo sapiens) (UniProt Q15149); assay: co-IP with M53 from SW480 lysate, LC-MS

Chain of dysadherin (FXYD5) as expressed in human CRC cells (endogenous in SW480 cells; overexpressed in HCT116 cells) (Q96DB9 22-178): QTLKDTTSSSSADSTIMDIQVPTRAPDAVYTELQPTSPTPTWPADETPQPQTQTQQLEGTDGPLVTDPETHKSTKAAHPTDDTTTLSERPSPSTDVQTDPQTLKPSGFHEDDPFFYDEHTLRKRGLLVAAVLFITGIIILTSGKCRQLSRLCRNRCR
Chain of ADP/ATP translocase 3 OS = Homo sapiens GN = SLC25A6 (Homo sapiens) (P12236 2-298 limits assumed): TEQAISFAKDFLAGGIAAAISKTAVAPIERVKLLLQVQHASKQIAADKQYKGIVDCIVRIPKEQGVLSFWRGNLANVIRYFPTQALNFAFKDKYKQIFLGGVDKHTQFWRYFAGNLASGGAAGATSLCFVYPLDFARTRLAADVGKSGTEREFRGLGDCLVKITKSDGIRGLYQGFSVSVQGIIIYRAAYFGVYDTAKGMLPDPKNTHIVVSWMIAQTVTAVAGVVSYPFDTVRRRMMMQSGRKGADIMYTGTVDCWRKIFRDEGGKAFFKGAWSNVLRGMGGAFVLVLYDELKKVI
Chain of ATP synthase subunit beta, mitochondrial OS = Homo (name cut off as printed) (Homo sapiens) (P06576 48-529 limits assumed): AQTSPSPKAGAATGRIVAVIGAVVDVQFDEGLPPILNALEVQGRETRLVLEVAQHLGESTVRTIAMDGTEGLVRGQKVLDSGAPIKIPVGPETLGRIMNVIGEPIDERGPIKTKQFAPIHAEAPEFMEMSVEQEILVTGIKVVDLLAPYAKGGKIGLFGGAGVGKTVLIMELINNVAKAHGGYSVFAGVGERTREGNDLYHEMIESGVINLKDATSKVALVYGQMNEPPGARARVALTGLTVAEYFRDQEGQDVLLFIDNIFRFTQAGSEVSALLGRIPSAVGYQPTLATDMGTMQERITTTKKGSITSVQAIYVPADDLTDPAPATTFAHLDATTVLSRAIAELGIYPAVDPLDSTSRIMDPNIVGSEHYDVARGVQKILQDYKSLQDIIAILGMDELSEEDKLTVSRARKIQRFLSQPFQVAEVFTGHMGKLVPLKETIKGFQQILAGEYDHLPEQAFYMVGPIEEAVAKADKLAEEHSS
Chain of Myosin-9 OS = Homo sapiens GN = MYH9 PE = 1 SV = 4 (Homo sapiens) (P35579 2-1960 limits assumed): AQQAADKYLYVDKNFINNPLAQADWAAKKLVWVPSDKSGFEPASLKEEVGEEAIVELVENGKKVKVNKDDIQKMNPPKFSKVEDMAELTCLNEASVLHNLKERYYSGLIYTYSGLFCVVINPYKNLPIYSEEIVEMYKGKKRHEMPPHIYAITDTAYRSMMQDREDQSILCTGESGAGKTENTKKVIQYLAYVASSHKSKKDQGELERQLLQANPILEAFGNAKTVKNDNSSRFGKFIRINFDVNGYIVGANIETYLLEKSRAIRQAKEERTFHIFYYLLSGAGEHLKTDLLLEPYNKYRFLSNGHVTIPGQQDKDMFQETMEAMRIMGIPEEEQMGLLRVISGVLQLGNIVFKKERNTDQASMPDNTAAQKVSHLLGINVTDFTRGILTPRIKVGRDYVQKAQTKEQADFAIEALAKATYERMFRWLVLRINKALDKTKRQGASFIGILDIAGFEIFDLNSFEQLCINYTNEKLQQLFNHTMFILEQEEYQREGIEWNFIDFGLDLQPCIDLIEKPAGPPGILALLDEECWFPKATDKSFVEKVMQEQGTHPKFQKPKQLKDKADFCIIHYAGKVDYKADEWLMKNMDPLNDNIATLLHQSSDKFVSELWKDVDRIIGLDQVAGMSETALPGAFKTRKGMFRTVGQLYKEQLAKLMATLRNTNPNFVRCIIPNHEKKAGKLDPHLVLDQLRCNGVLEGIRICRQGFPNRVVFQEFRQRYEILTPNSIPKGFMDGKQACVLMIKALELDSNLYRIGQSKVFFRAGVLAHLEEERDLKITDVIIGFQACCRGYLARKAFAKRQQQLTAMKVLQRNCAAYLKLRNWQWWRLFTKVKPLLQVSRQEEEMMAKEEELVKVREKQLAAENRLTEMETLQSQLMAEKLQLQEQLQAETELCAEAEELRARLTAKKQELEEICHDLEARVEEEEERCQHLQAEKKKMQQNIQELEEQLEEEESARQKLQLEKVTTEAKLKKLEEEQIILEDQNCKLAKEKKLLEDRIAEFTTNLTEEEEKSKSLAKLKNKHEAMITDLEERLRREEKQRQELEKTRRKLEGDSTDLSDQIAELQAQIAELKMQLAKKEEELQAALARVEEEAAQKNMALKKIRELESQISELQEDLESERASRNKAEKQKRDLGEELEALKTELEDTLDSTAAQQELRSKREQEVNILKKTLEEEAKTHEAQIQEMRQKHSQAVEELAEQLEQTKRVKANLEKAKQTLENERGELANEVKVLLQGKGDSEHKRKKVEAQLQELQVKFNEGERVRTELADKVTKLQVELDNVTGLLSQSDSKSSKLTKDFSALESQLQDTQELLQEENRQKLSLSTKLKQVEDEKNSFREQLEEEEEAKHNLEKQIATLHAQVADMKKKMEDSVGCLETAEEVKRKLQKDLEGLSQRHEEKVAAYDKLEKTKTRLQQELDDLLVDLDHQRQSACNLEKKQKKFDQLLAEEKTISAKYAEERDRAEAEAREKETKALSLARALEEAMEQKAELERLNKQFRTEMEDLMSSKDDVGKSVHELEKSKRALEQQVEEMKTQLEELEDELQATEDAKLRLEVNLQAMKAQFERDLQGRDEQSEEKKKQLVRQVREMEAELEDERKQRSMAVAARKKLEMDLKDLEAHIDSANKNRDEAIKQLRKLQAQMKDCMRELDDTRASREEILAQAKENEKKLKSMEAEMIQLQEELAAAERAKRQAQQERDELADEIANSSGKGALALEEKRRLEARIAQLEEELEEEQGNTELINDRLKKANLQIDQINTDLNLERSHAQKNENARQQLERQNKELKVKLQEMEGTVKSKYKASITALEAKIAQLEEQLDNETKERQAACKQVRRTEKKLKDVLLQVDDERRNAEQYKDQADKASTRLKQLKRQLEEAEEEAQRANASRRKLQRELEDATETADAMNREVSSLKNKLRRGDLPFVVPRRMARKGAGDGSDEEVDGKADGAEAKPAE
Chain of Isoform 2 of ATP synthase subunit alpha, mitochondrial (P25705 51-553 limits assumed): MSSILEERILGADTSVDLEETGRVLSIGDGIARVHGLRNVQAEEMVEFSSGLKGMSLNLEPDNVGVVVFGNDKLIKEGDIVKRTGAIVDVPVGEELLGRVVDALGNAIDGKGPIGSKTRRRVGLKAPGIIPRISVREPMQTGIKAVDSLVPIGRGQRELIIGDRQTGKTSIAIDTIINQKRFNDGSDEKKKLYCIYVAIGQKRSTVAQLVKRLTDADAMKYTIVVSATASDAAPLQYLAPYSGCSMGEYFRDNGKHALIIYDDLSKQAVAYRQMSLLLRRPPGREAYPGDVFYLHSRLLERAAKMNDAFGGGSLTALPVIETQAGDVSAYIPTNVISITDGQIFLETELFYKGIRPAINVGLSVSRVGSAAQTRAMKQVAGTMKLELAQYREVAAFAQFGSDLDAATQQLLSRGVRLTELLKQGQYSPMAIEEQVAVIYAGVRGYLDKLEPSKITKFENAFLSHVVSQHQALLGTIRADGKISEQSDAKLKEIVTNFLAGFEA
Chain of Tubulin beta-4B chain OS = Homo sapiens GN = TUBB4B (Homo sapiens) (P68371 whole entry): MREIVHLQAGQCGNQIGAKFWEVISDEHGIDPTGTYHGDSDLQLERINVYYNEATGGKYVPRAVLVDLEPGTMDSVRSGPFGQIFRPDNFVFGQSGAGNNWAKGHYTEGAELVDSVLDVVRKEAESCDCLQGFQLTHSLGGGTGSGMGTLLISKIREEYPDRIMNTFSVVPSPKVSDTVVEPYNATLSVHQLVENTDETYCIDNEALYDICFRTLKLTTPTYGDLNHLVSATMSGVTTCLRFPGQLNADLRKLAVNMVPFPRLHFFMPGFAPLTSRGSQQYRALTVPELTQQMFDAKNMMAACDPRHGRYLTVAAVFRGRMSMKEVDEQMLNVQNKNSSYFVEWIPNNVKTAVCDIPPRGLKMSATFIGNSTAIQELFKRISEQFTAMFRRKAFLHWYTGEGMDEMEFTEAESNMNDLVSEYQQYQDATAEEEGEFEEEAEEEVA
Chain of Isoform 2 of Glyceraldehyde-3-phosphate (name cut off as printed) (P04406 43-335 limits assumed): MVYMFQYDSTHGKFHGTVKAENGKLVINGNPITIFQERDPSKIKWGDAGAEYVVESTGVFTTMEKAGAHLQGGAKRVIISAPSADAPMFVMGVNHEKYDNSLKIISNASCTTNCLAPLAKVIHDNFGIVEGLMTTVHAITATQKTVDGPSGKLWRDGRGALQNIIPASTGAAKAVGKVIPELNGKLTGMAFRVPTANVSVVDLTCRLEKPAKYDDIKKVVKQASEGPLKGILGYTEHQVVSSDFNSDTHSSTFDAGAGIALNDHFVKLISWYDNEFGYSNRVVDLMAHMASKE
Chain of Heat shock cognate 71 kDa protein OS = Homo sapiens (Homo sapiens) (P11142 2-646 limits assumed): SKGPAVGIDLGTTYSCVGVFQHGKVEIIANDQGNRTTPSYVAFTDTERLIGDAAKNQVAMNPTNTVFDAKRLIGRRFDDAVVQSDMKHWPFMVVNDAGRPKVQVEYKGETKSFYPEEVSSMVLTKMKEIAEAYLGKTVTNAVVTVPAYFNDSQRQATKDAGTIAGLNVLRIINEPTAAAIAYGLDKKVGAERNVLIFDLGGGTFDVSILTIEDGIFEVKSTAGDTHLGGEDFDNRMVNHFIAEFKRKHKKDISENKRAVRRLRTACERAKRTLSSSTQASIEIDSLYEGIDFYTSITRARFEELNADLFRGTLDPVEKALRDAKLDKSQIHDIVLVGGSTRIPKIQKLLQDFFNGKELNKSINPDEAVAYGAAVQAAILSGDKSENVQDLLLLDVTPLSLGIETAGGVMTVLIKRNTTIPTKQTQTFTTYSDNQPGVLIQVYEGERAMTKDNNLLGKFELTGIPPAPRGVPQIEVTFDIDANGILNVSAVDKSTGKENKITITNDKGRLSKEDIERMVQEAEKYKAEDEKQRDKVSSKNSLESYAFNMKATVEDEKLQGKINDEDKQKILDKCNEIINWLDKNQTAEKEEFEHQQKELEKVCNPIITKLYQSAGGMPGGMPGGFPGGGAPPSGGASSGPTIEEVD
Chain of Heat shock protein beta-1 OS = Homo sapiens (Homo sapiens) (P04792 whole entry, canonical isoform): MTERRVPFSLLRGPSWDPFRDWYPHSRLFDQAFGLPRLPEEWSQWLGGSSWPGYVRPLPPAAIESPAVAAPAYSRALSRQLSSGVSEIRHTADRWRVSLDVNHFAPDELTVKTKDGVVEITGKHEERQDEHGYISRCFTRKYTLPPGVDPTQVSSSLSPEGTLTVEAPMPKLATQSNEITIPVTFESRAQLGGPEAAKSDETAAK

isotype IgG control antibody
Probe identification probability [1]: 100% | Probe identification probability [2]: 100% | Probe identification probability [3]: 91% | Probe identification probability [4]: 98% | Probe identification probability [5]: 99% | Probe identification probability [6]: 100% | Probe identification probability [7]: 72% | Probe identification probability [8]: 100% | Probe identification probability [9]: 100% | Probe identification probability [10]: 10% | Probe identification probability [11]: 100% | Probe identification probability [12]: 100% | Probe identification probability [13]: 100% | Probe identification probability [14]: 100% | Probe identification probability [15]: 100% | Probe identification probability [16]: 75% | Probe identification probability [17]: 100% | Probe identification probability [18]: 13% | Probe identification probability [19]: 100% | Probe identification probability [20]: 6% | Probe identification probability [21]: 15%

dysadherin (FXYD5) as expressed in human CRC cells (endogenous in SW480 cells; overexpressed in HCT116 cells) (from UniProt Q96DB9 22-178)
Probe identification probability [22]: 100% | Probe identification probability [23]: 100% | Probe identification probability [24]: 100% | Probe identification probability [25]: 100% | Probe identification probability [26]: 100% | Probe identification probability [27]: 100% | Probe identification probability [28]: 100% | Probe identification probability [29]: 100% | Probe identification probability [30]: 100% | Probe identification probability [31]: 100% | Probe identification probability [32]: 100% | Probe identification probability [33]: 100% | Probe identification probability [34]: 100% | Probe identification probability [35]: 100% | Probe identification probability [36]: 100% | Probe identification probability [37]: 100% | Probe identification probability [38]: 100% | Probe identification probability [39]: 100% | Probe identification probability [40]: 100% | Probe identification probability [41]: 100%
